We go through two molecules from US20170233492A1 (PHARMABCINE, published 2017).

Experiment [1] has as its target T1, Recombinant human HGF R/c-Met Fc chimera (R&D systems, cat no. 358-MT/CF) (human, UniProt P08581 25-932).
T1 construct: Bought reagent; also called human c-Met-Fc; human-c-Met; not shown: Fc part of the purchased chimera
Briefly: phage ELISA, c-Met 100 ng coated, anti-M13-HRP detection, A450.

For experiment [2], the target named is T1, Recombinant human HGF R/c-Met Fc …. Briefly: SPR (BIAcore), human c-Met-Fc immobilized on chip, antibody flowed; koff/kon. The protocol: (§1) The binding capacity to c-Met of the antibody was measured by BIAcore (GE Healthcare). According to the manufacturer's manual, sensorgrams were secured by immobilizing mouse-c-Met and human-c-Met (R&D system) on a CMS chip (GE Healthcare, Sweden), and flowing various amounts of antibodies. Rate constants kon and koff were measured on the basis of the sensorgrams secured at each concentration, and Kd was calculated from the ratio of rate constants (koff/kon) (Table 3). As a result, 1E4-IgG had high binding capacity with mouse-c-Met as well as binding capacity with human-c-Met (FIG. 8).
For orientation: SPR reads the build-up and loss of mass on a sensor chip optically.

The target in experiment [3] is T2, mouse c-Met-Fc (mouse, UniProt P16056 25-931, limits assumed).
T2 construct: Bought reagent (R&D system); also called mouse-c-Met (R&D system); not shown: Fc part
In words: SPR (BIAcore), mouse c-Met-Fc immobilized on chip, antibody flowed. The protocol:
as §1

For experiment [4], the target named is T1, Recombinant human HGF R/c-Met Fc …. In words: SPR (BIAcore), human c-Met-Fc immobilized on chip, antibody flowed. The method, then: as §1
In experiment [5] the target is T2, mouse c-Met-Fc. In words: SPR (BIAcore), mouse c-Met-Fc immobilized on chip, antibody flowed; koff/kon. The method, then: as §1

T2 sequence (P16056 25-931 limits assumed): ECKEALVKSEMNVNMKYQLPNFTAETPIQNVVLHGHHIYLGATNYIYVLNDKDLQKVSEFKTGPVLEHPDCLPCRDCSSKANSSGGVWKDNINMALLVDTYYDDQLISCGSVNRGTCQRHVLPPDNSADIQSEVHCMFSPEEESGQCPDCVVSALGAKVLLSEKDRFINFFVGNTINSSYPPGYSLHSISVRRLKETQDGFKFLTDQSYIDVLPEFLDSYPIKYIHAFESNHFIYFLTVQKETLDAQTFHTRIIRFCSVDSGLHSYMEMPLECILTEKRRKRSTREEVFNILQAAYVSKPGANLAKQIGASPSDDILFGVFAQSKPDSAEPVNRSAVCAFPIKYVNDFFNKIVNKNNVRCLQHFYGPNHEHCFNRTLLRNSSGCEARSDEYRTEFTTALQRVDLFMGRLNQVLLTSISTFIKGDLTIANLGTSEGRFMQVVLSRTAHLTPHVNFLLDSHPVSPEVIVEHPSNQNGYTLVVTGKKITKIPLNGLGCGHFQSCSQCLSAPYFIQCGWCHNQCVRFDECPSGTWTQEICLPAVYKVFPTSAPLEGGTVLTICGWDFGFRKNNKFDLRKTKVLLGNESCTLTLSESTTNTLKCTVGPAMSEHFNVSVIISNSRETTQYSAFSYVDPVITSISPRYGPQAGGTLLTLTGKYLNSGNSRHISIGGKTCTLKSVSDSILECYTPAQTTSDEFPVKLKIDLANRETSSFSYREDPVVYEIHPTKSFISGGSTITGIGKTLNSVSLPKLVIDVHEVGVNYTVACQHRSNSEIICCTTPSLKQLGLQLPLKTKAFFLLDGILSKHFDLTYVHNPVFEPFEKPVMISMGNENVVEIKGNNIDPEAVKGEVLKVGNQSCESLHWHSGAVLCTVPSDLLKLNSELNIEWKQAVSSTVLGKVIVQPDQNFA
T1 sequence (P08581 25-932, change not shown): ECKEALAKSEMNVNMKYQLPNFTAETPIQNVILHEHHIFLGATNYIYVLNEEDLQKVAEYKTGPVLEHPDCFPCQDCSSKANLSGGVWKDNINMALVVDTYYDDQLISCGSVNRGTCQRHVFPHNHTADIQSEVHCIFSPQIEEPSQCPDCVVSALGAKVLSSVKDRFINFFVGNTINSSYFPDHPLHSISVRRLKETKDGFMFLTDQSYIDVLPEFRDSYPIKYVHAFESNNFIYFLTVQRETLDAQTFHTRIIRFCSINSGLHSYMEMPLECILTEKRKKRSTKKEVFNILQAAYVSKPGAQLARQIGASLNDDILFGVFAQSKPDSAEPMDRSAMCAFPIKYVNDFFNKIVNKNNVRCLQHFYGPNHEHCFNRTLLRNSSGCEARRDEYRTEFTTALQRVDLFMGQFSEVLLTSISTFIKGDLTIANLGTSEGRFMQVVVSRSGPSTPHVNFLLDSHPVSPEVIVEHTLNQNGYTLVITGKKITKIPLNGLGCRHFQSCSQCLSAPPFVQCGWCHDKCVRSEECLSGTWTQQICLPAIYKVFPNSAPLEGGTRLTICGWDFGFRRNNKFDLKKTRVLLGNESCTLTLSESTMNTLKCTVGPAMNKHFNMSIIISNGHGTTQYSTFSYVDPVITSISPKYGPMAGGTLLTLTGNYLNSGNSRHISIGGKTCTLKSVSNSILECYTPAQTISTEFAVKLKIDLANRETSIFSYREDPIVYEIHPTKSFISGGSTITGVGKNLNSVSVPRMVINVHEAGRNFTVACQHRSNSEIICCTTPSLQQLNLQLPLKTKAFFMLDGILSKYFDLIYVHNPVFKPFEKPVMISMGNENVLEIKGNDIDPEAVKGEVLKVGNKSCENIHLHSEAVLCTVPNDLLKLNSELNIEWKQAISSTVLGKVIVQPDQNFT

B1: 1E4-ScFv (scFv)
scFv: QVQLVQSGAEVKKPGESLRISCQGSGYSFPTHWITWVRQMPGKGLEWMGTIDPTDSYNFYGPSFQGHVTISADSSSSTAYLQWSSLKASDTAMYYCARDGNYYDSRGYYYDTFDMWGQGTLVTVSSGLGGLGGGGSGGGGSGGSSGVGSDIQMTQSPSFLSASVGDRVTITCRASQGISTYLAWYQQKPGTAPKLLIYSASTLESGVPSRFSGSGSGTDFTLTISSLQPEDSATYYCQQADSFPLTFGGGTKVEIKRGGASLVE
notes: also called soluble 1E4-ScFv; not shown: tags implied by Ni-NTA purification and anti-Myc detection
Regarding B1, the binding result in experiment [1] was “binds”.

B2: 1E4-IgG (antibody, V domains shown)
VH: QVQLVQSGAEVKKPGESLRISCQGSGYSFPTHWITWVRQMPGKGLEWMGTIDPTDSYNFYGPSFQGHVTISADSSSSTAYLQWSSLKASDTAMYYCARDGNYYDSRGYYYDTFDMWGQGTLVTVSS
VL: DIQMTQSPSFLSASVGDRVTITCRASQGISTYLAWYQQKPGTAPKLLIYSASTLESGVPSRFSGSGSGTDFTLTISSLQPEDSATYYCQQADSFPLTFGGGTKVEIKR
notes: also called 1E4 antibody; anti-c-Met IgG (1E4-IgG)
As to B2, the results for the Kd (in experiment [2]; in the experiment with mouse c-Met-Fc [5]) were 0.298 nM and 0.615 nM, respectively. In addition, the figures for the koff (with mouse c-Met-Fc [3]; in experiment [4]) were 0.00159 s⁻¹ and 0.000807 s⁻¹, respectively. Besides, the figures for the kon (in the experiment with mouse c-Met-Fc [3]; in experiment [4]) were 2.58e+06 M⁻¹ s⁻¹ and 2.71e+06 M⁻¹ s⁻¹, respectively.
